Substitutions are numbered along the chain they refer to. Numbers in names are those of the source.
B1: TPP-31300 (antibody, human IgG4, V domains shown)
VH: EVQLLESGGGLVQPGGSLRLSCAASGFTFSHYDMNWLRQAPGKGLEWVGVISYEGSNKFYADFVKGRFTISRDNSKNTLYLQMNSLRAEDTAVYYCARTPGSHFDYWGQGTLVTVSS
VL: QSVLTQPPSASGTPGQRVTISCSGSSSNIGNNAVNWYQQLPGTAPKLLIYYDDLLPSGVPDRFSGSKSGTSASLAISGLRSEDEADYYCSAWDDSLNGVVFGGGTKLTVL
notes: consecutive numbering; also called VH-D54E
B2: TPP-31303 (antibody, human IgG4, V domains shown)
VH: B1 VH
VL: B1 VL with G98A
notes: consecutive numbering; also called VH-D54E / VL-G98A
B3: TPP-31301 (antibody, human IgG4, V domains shown)
VH: B1 VH
VL: B1 VL with N97Q
notes: consecutive numbering; also called VH-D54E / VL-N97Q
B4: TPP-31308 (antibody, human IgG4, V domains shown)
VH: B1 VH with E54D, G55S
VL: B1 VL
notes: consecutive numbering; also called VH-G55S
B5: TPP-31302 (antibody, human IgG4, V domains shown)
VH: B1 VH
VL: B1 VL with N97S
notes: consecutive numbering; also called VH-D54E/VL-N97S
B6: TPP-31309 (antibody, human IgG4, V domains shown)
VH: B1 VH with E54D, G55S
VL: B1 VL with N97Q
notes: consecutive numbering; also called VH-G55S / VL-N97Q
B7: TPP-31311 (antibody, human IgG4, V domains shown)
VH: B1 VH with E54D, G55S
VL: B1 VL with G98A
notes: consecutive numbering; also called VH-G55S / VL-G98A
B8: TPP-31304 (antibody, human IgG4, V domains shown)
VH: B1 VH with E54D, G55A
VL: B1 VL
notes: consecutive numbering; also called VH-G55A
B9: TPP-31307 (antibody, human IgG4, V domains shown)
VH: B1 VH with E54D, G55A
VL: B1 VL with G98A
notes: consecutive numbering; also called VH-G55A / VL-G98A
B10: TPP-31306 (antibody, human IgG4, V domains shown)
VH: B1 VH with E54D, G55A
VL: B1 VL with N97S
notes: consecutive numbering; also called VH-G55A / VL-N97S
B11: TPP-31310 (antibody, human IgG4, V domains shown)
VH: B1 VH with E54D, G55S
VL: B1 VL with N97S
notes: consecutive numbering; also called VH-G55S / VL-N97S
B12: TPP-31305 (antibody, human IgG4, V domains shown)
VH: B1 VH with E54D, G55A
VL: B1 VL with N97Q
notes: consecutive numbering; also called VH-G55A / VL-N97Q

Target: T1, murine IL-11 (Invigate, e.g., lot #C210819-09) (mouse, UniProt P47873 22-199)
T1 construct: Bought protein; biotinylated where captured on streptavidin plates; also called mIL-11; mIL11
T1 sequence: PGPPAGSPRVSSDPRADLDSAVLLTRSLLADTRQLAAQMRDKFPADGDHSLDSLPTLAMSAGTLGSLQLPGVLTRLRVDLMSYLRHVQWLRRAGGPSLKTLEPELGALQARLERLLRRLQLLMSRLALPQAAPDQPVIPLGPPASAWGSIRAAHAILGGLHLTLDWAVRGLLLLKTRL
Test: SPR, Biacore 8K; antibody captured on anti-human IgG Fc chip, IL-11 analyte 0-50 nM, 1:1 fit
Method: (§1) Antibody binding affinity to hIL-11 (Invigate, Germany, e.g., lot #C121021-19) and mIL-11 (Invigate, Germany, e.g., lot #C210819-09) was detected using Biacore 8K. Each antibody was captured on an anti-human IgG Fc antibody immobilized CM5 sensor chip (GE). hIL-11 and mIL-11 at different concentrations (0, 5, 15.82 and 50 nM) in 1×HBS-EP+ (pH 7.4) (GE healthcare) were injected over the sensor chip at a flow rate of 30 μL/min for an association phase of 120 s, followed by 200 s dissociation phase. The chip was then regenerated by 10 mM Glycine, pH 1.5 after each binding cycle.
(§2) The sensorgrams of blank surface and buffer channel were subtracted from the test sensorgrams. The experimental data was fitted by 1:1 model using Langmiur analysis. Molecular weight of 19.3 kDa was used to calculate the molar concentration of human and mouse IL-11.

Point of comparison: B6, Kd 53 nM. Against it:
- B1 — 18-fold lower, 3 nM
- B2 — 15-fold lower, 3.6 nM
- B3 — 18-fold lower, 2.9 nM
- B4 — within 1.5-fold, 47 nM
- B5 — 17-fold lower, 3.2 nM
- B7 — within 1.5-fold, 58 nM
- B8 — 2.3-fold lower, 23 nM
- B9 — 1.9-fold lower, 28 nM
- B10 — 2.3-fold lower, 23 nM
- B11 — within 1.5-fold, 43 nM
- B12 — 2.1-fold lower, 25 nM

Target: T2, human IL-11 (Invigate, e.g., lot #C121021-19) (human, UniProt P20809 22-199)
T2 construct: Bought protein; also called hIL-11; hIL11
T2 sequence: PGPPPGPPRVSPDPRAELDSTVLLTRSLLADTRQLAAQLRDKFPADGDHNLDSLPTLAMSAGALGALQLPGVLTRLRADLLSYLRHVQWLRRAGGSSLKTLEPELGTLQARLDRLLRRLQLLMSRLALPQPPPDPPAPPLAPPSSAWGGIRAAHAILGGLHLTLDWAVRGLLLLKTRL
Test: as above
Method: as §1, §2

Point of comparison: B4, Kd 40 nM. Against it:
- B1 — 11-fold lower, 3.8 nM
- B2 — 5.8-fold lower, 6.9 nM
- B3 — 11-fold lower, 3.6 nM
- B5 — 11-fold lower, 3.8 nM
- B6 — within 1.5-fold, 41 nM
- B7 — 2.2-fold higher, 87 nM
- B8 — 2.7-fold lower, 15 nM
- B9 — within 1.5-fold, 31 nM
- B10 — 2.7-fold lower, 15 nM
- B11 — the same, 40 nM
- B12 — 2.7-fold lower, 15 nM

Source: patent publication US20240317847A1 (Bayer, published 2024)
